Experimental data: US20120034215A1 (Daiichi Sankyo, published 2012)
Substitutions are numbered along the chain they refer to.

T1: cynomolgus monkey MST1R with N-terminal Flag tag, expressed on HEK293T cells (cynomolgus monkey, UniProt Q04912 27-1400 (human entry))
T1 construct: ORF cloned excluding the signal peptide region; also called cynomolgus MST1R; not shown: N-terminal Flag tag from vector pFLAG-myc-CMV-19 (Sigma)
T1 chain: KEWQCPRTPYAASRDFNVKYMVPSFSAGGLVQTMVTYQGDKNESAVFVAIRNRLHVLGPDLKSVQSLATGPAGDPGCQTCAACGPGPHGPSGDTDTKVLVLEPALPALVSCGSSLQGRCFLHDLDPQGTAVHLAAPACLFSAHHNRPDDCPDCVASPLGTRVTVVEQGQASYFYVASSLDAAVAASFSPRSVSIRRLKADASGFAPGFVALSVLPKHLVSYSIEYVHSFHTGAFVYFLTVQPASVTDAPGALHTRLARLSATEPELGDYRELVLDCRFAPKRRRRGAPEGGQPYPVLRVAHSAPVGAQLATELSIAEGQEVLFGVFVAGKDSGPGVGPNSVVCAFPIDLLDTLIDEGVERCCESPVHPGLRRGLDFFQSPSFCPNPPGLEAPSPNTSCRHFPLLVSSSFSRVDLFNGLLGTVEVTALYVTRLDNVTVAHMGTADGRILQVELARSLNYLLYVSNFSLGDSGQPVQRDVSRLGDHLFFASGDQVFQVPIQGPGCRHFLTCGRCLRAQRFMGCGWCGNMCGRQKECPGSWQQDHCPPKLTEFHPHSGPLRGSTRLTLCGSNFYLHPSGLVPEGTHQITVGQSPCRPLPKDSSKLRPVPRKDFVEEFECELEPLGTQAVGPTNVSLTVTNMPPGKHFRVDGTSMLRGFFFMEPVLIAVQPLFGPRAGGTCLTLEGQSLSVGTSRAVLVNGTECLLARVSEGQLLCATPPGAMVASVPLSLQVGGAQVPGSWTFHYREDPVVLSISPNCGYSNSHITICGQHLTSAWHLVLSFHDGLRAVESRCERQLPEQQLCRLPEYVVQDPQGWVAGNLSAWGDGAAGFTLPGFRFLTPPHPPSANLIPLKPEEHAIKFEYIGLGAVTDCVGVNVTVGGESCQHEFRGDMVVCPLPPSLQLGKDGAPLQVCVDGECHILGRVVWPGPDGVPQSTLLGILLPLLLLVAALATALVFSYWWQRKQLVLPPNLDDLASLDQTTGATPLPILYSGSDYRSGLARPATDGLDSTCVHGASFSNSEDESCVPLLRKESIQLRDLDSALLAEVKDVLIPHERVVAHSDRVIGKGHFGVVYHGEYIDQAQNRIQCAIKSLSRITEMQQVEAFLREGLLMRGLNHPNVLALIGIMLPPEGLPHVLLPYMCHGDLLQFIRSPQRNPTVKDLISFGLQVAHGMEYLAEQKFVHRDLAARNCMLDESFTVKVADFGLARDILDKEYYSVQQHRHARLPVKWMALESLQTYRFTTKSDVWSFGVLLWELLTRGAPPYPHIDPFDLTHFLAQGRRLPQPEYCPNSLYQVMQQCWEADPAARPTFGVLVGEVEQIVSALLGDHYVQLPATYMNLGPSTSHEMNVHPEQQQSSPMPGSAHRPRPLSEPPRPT

B1: MOR07923 (human IgG1) (antibody, V domains shown)
VH: QVQLVESGGGLVQPGGSLRLSCAASGFTFNSYSMSWVRQAPGKGLEWVSYISSRSSTTYYADSVKGRFTISRDNSKNTLYLQMNSLRAEDTAVYYCARGYFHGMDYWGQGTLVTVSS
VL: DIVLTQSPATLSLSPGERATLSCRASQSVSFDYLGWYQQKPGQAPRLLIYGASNRATGVPARFSGSGSGTDFTLTISSLEPEDFATYYCFQYLIVPFTFGQGTKVEIKR
B2: MOR07692 (human IgG1) (antibody, V domains shown)
VH: B1 VH
VL: B1 VL with F90Q, L93Y, I94N, V95M, F97Y
B3: MOR07926 (human IgG1) (antibody, V domains shown)
VH: B1 VH
VL: B1 VL with Y92A, V95M
B4: MOR07925 (human IgG1) (antibody, V domains shown)
VH: B1 VH
VL: B1 VL with F90L, L93F, I94N, V95P, F97H
B5: MOR07924 (human IgG1) (antibody, V domains shown)
VH: B1 VH
VL: B1 VL with F90Q, L93N, V95N

Target: T1, cynomolgus monkey MST1R with N-terminal …
Test: flow cytometry on transfected HEK293T cells, 2 ug/ml IgG1
Procedure: Cells (5×10⁵ cells/well) were incubated with Fab or IgG antibodies at the indicated concentrations in 50 μl FACS buffer (PBS, 5% FCS) for 60 min at 4° C. in round bottom 96-well culture plates (Corning). Cells were washed twice and then incubated with Fluorescein Isothiocyanate (FITC) conjugated detection antibody for 30 min at 4° C. Cells were washed again, resuspended in 0.3 ml FACS buffer and then analyzed by flow cytometry in a Cytomics FC500 (Beckman Coulter, Inc.). Data were analysed via FlowJo software (Tomy digital biology Co., Ltd.). Polyclonal goat anti-hMSP R IgG (R&D systems) or anti-FLAG M2 antibody (Sigma) was used as a positive control and MOR03207 (anti-lysozyme) antibody was used as a negative control.
FACS-analysis of MST1R ortholog-expressing cells: Human MST1R (cDNA nucleotide sequence is shown as GenBank Accession No: NM_{—}002447.2), cynomolgus monkey MST1R and mouse MST1R (cDNA nucleotide sequence is shown as GeneBank Accession No: NM_{—}009074.1) expression vector containing N-terminal Flag tag (pFLAG-myc-CMV-19, Sigma) were constructed. cDNA encoding cynomolgus monkey MST1R was amplified by PCR using cynomolgus monkey stomach cDNA as a template with forward and reverse primers having nucleotide sequences of SEQ ID NO: 34 and 35, respectively. By sequencing analysis of PCR product, the cynomolgus MST1R ORF nucleotide sequence was identified as shown in SEQ ID NO: 36. The corresponding amino acid sequence was shown in SEQ ID NO: 37. Then human, cynomolgus monkey and mouse MST1R ORF cDNA, excluding signal peptide regions, were amplified using respective forward and reverse primers having nucleotide sequences of SEQ ID NO: 38 and 39 (human), 40 and 41 (cynomolgus monkey), and 42 and 43 (mouse) with appropriate cloning sites and then cloned into pFLAG-myc-CMV-19. An amplified human MST1R fragment encodes amino acids corresponding to GenBank Accession No: NP_{—}002438.2 (SEQ ID NO: 45). A Mouse MST1R fragment encodes amino acids corresponding to GenBank Accession No: NP_{—}033100.1 (SEQ ID NO: 47) except for those amino acid differences at positions: 688 (Leu to Pro), 713 (Ile to Val), 714 (Ala to Gly) and 719 (Ala to Val). These expression vectors were transfected into HEK293T cells. For FACS-analysis, cells were incubated with 2 μg/ml primary antibodies followed by incubation with FITC-labeled secondary antibody as described above.

binding result | Binder
binds | B1
binds | B2
binds | B3
binds | B4
binds | B5
